Experimental data published in patent US20050214212A1.

What was measured:
[1] = target: CD44v6 (human CD44 variant isoform containing exon v6) on human tumour cells (human) (UniProt P16070); assay: competitive cell ELISA (A431 cells, vs BIWA 1)
Target sequence in this assay (P16070 21-742, stated change not applied): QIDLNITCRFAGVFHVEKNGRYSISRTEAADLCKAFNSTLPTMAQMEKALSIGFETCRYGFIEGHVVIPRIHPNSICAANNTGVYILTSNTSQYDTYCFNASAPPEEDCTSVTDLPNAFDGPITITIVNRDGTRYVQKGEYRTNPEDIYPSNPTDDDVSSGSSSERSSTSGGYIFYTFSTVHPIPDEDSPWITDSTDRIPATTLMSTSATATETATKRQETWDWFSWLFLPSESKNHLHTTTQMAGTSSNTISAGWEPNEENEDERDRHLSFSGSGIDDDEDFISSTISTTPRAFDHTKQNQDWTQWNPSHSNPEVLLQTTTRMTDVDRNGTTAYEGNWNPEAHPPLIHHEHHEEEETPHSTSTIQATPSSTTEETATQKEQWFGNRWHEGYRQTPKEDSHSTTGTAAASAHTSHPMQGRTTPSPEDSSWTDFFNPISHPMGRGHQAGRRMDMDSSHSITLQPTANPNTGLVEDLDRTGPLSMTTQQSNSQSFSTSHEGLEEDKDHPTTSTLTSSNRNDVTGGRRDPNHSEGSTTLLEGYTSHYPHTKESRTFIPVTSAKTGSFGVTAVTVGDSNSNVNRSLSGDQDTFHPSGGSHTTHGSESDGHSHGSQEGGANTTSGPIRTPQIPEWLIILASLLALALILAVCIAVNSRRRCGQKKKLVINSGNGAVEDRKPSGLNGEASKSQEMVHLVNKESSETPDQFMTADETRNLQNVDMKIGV

[2] = target: CD44v6 (human CD44 variant isoform containing exon v6) on human tumour cells (human) (UniProt P16070); assay: immunoreactivity assay, 186Re-MAG3-labelled MAb on fixed UM-SCC-11B cells
[3] = target: glutathione-S-transferase fusion protein containing domains v3-v10 of human CD44 (human) (UniProt P16070); assay: SPR (BIAcore 2000), GST/CD44v3-v10 immobilised on CM5
Sequence of glutathione-S-transferase fusion protein containing domains v3-v10 of human CD44 (human) (P16070 267-604): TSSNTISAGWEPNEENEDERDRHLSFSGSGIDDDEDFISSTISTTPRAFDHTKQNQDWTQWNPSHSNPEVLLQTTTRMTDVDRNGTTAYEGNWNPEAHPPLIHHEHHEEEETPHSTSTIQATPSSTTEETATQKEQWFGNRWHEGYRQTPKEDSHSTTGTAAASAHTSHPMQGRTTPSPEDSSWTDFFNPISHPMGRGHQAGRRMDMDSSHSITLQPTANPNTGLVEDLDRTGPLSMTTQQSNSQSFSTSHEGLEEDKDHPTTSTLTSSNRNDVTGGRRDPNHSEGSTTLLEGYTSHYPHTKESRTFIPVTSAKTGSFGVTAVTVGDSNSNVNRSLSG

[4] = target: glutathione-S-transferase fusion protein containing domains v3-v10 of human CD44 (human) (UniProt P16070); assay: SPR (BIAcore 2000), GST/CD44v3-v10 immobilised on CM5, MAb 8-67 nM injected
[5] = target: CD44v6 (human CD44 variant isoform containing exon v6) on human tumour cells (human) (UniProt P16070); assay: immunoreactivity assay on fixed UM-SCC-11B cells, linear extrapolation to infinite antigen excess, experiment 2
[6] = target: CD44v6 (human CD44 variant isoform containing exon v6) on human tumour cells (human) (UniProt P16070); assay: immunoreactivity assay, 125I-labelled MAb on glutaraldehyde-fixed UM-SCC-11B cells, experiment 2

Substance	IC50 [1]	immunoreactive fraction [2]	Kd relative to murine BIWA 1 [3]	Kd [4]	koff [4]	kon [4]	Binding Extrapolated (%) (immunoreactive fraction) [5]	Binding to 5 × 10^6 cells (%) [6]
hMAb BIWA 4 (bivatuzumab), humanised CDR-grafted antibody without framework modifications	8.01 µg/mL	–	–	–	–	–	–	–
cMAb BIWA 2 (chimeric antibody: BIWA 1 variable regions, human gamma-1 and kappa constant regions)	–	> 75%	0.7	0.24 nM	4.1e-05 s⁻¹	170000 M⁻¹ s⁻¹	79.9%	80.5%
